Legend:
[1] = target: HLA-A*02:01 (Homo sapiens, UniProt P04439, D140Y/D185E/D98H/E176V/E277Q/G131W/G231S/I119V/I121R/I166T/I218V/L300P/L318F/N151K/N90K/P208A/P217A/Q86G/Q94H/R138H/R169H/T345S); assay: MHC binding assay (UV-ligand exchange, beta2m ELISA); settings: binding to HLA-A*02:01, UV-ligand exchange
Outline: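 Binding capacity is expressed as the yield of UV-mediated ligand exchange, reflecting how well each peptide stabilizes peptide-receptive MHC. Stabilized complexes are read out by anti-β2m HRP ELISA (450 nm) after streptavidin capture, with refolded MLA-001 monomer standards for quantitation.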

[2] = system: CD8+ T cells; assay: In vitro T-cell priming immunogenicity assay (aAPC with pMHC and anti-CD28, multimer staining); format: cell-based, human; settings: for Wells positive [%]: HLA-A*02 restricted peptides, percentage of positive wells and donors (among evaluable); for in vitro immunogenicity, wells: CD8+ T cells of healthy HLA-A*02 donors, three stimulation cycles, multimer readout
Source text: In order to obtain information regarding the immunogenicity of the TUMAPs of the present invention, the inventors performed investigations using an in vitro T-cell priming assay based on repeated stimulations of CD8+ T cells with artificial antigen presenting cells (aAPCs) loaded with peptide/MHC complexes and anti-CD28 antibody.
In order to perform in vitro stimulations by artificial antigen presenting cells loaded with peptide-MHC complex (pMHC) and anti-CD28 antibody, the inventors first isolated CD8+ T cells from fresh HLA-A*02 leukapheresis products via positive selection using CD8 microbeads (Miltenyi Biotec, Bergisch-Gladbach, Germany) of healthy donors obtained from the University clinics Mannheim, Germany, after informed consent.
PBMCs and isolated CD8+ lymphocytes were incubated in T-cell medium (TCM) until use consisting of RPMI-Glutamax (Invitrogen, Karlsruhe, Germany) supplemented with 10% heat inactivated human AB serum (PAN-Biotech, Aidenbach, Germany), 100 U/ml Penicillin/100 μg/ml Streptomycin (Cambrex, Cologne, Germany), 1 mM sodium pyruvate (CC Pro, Oberdorla, Germany), 20 μg/ml Gentamycin (Cambrex). 2.5 ng/ml IL-7 (PromoCell, Heidelberg, Germany) and 10 U/ml IL-2 (Novartis Pharma, Nurnberg, Germany) were also added to the TCM at this step.
Generation of pMHC/anti-CD28 coated beads, T-cell stimulations and readout was performed in a highly defined in vitro system using four different pMHC molecules per stimulation condition and 8 different pMHC molecules per readout condition.
The purified co-stimulatory mouse IgG2a anti human CD28 Ab 9.3 (Jung et al., 1987) was chemically biotinylated using Sulfo-N-hydroxysuccinimidobiotin as recommended by the manufacturer (Perbio, Bonn, Germany). Beads used were 5.6 μm diameter streptavidin coated polystyrene particles (Bangs Laboratories, Illinois, USA).
800.000 beads/200 μl were coated in 96-well plates in the presence of 4×12.5 ng different biotin-pMHC, washed and 600 ng biotin anti-CD28 were added subsequently in a volume of 200 μl. Stimulations were initiated in 96-well plates by co-incubating 1×10^6 CD8+ T cells with 2×10^5 washed coated beads in 200 μl TCM supplemented with 5 ng/ml IL-12 (PromoCell) for 3 days at 37° C. Half of the medium was then exchanged by fresh TCM supplemented with 80 U/ml IL-2 and incubating was continued for 4 days at 37° C. This stimulation cycle was performed for a total of three times. For the pMHC multimer readout using 8 different pMHC molecules per condition, a two-dimensional combinatorial coding approach was used as previously described (Andersen et al., 2012) with minor modifications encompassing coupling to 5 different fluorochromes. Finally, multimeric analyses were performed by staining the cells with Live/dead near IR dye (Invitrogen, Karlsruhe, Germany), CD8-FITC antibody clone SK1 (BD, Heidelberg, Germany) and fluorescent pMHC multimers. For analysis, a BD LSRII SORP cytometer equipped with appropriate lasers and filters was used. Peptide specific cells were calculated as percentage of total CD8+ cells. Evaluation of multimeric analysis was done using the FlowJo software (Tree Star, Oregon, USA). In vitro priming of specific multimer+CD8+ lymphocytes was detected by comparing to negative control stimulations.

| Substance | Peptide exchange (MHC class I binding score, peptide exchange yield) [1] | Wells positive [%] [2] | in vitro immunogenicity, wells [2] |
| --- | --- | --- | --- |
| 1 (LLSGQLPTI; listed as Homo sapiens) [compound 1] | “+++” (≥50 = +++) | “+++” (50% - 69% = +++) |  |
| 2 (LLSEETPSA; listed as Homo sapiens) [compound 2] | “+++” (≥50 = +++) | “+” (<20% = +) |  |
| 3 (LTIDTQYYL; listed as Homo sapiens) [compound 3] | “+++” (≥50 = +++) | “+” (<20% = +) |  |
| 5 (VLQGLTFTL; listed as Homo sapiens) [compound 5] | “+++” (≥50 = +++) | “+++” (50% - 69% = +++) |  |
| 7 (NLLGMIFSM; listed as Homo sapiens) [compound 7] | “++++” (≥75% = ++++) | “++++” (≥70% = ++++) |  |
| 8 (ALYAVIEKA; listed as Homo sapiens) [compound 8] | “+++” (≥50 = +++) | “+” (<20% = +) |  |
| 9 (FLLDLDPLL; listed as Homo sapiens) [compound 9] | “+++” (≥50 = +++) | “++” (20% - 49% = ++) |  |
| 12 (GLLLLVPLL; listed as Homo sapiens) [compound 12] | “+++” (≥50 = +++) | “+++” (50% - 69% = +++) |  |
| 13 (HLVPASWKL; listed as Homo sapiens) [compound 13] | “+++” (≥50 = +++) | “+++” (50% - 69% = +++) |  |
| 288 (RLAPEIVSA; listed as Homo sapiens) [compound 288] | “+++” (≥50 = +++) |  |  |
| 289 (SLLAANNLL; listed as Homo sapiens) [compound 289] | “++++” (≥75% = ++++) |  |  |
| 290 (IASPVIAAV; listed as Homo sapiens) [compound 290] | “+++” (≥50 = +++) |  |  |
| 291 (KIIDTAGLSEA; listed as Homo sapiens) [compound 291] | “+++” (≥50 = +++) |  |  |
| 292 (KLINSQISL; listed as Homo sapiens) [compound 292] | “+++” (≥50 = +++) |  |  |
| 293 (GLAMVEAISYV; listed as Homo sapiens) [compound 293] | “++++” (≥75% = ++++) |  |  |
| 294 (KLYGPEGLELV; listed as Homo sapiens) [compound 294] | “++++” (≥75% = ++++) |  |  |
| 295 (SLAAVSQQL; listed as Homo sapiens) [compound 295] | “+++” (≥50 = +++) |  |  |
| 296 (FILEPLYKI; listed as Homo sapiens) [compound 296] | “++++” (≥75% = ++++) |  |  |
| 297 (ILQNGLETL; listed as Homo sapiens) [compound 297] | “+++” (≥50 = +++) |  |  |
| 298 (ALTDVILCV; listed as Homo sapiens) [compound 298] | “++++” (≥75% = ++++) |  |  |
| 299 (RLLEEEGVSL; listed as Homo sapiens) [compound 299] | “+++” (≥50 = +++) |  |  |
| 300 (IVLERNPEL; listed as Homo sapiens) [compound 300] | “+++” (≥50 = +++) |  |  |

| Substance | Peptide exchange (MHC class I binding score, peptide exchange yield) [1] | Wells positive [%] [2] | in vitro immunogenicity, wells [2] |
| --- | --- | --- | --- |
| 301 (LQFDGIHVV; listed as Homo sapiens) [compound 301] | “+++” (≥50 = +++) |  |  |
| 302 (SLAELDEKISA; listed as Homo sapiens) [compound 302] | “+++” (≥50 = +++) |  |  |
| 303 (FVWEASHYL; listed as Homo sapiens) [compound 303] | “++++” (≥75% = ++++) |  |  |
| 304 (ALIRLDDLFL; listed as Homo sapiens) [compound 304] | “+++” (≥50 = +++) |  |  |
| 305 (AMLAQQMQL; listed as Homo sapiens) [compound 305] | “+++” (≥50 = +++) |  |  |
| 306 (AQVALVNEV; listed as Homo sapiens) [compound 306] | “+++” (≥50 = +++) |  |  |
| 307 (FLLPVAVKL; listed as Homo sapiens) [compound 307] | “+++” (≥50 = +++) |  |  |
| 308 (SLLDQIPEM; listed as Homo sapiens) [compound 308] | “+++” (≥50 = +++) |  |  |
| 309 (SLSFVSPSL; listed as Homo sapiens) [compound 309] | “+++” (≥50 = +++) |  |  |
| 310 (VMAEAPPGV; listed as Homo sapiens) [compound 310] | “+++” (≥50 = +++) |  |  |
| 311 (YLHRQVAAV; listed as Homo sapiens) [compound 311] | “+++” (≥50 = +++) |  |  |
| 314 (LIDDKGTIKL; listed as Homo sapiens) [compound 314] | “++” (≥20% = ++) |  |  |
| 319 (SLYKGLLSV; listed as Homo sapiens) [compound 319] |  |  | ++ (20% - 49% = ++) |
| 320 (LLWGNLPEI; listed as Homo sapiens) [compound 320] |  |  | ++ (20% - 49% = ++) |
| 321 (KLLAVIHEL; listed as Homo sapiens) [compound 321] |  |  | ++ (20% - 49% = ++) |
| 322 (TLTNIIHNL; listed as Homo sapiens) [compound 322] |  |  | ++ (20% - 49% = ++) |
| 323 (ILVDWLVQV; listed as Homo sapiens) [compound 323] |  |  | ++ (20% - 49% = ++) |
| 324 (LLYDAVHIV; listed as Homo sapiens) [compound 324] |  |  | ++ (20% - 49% = ++) |
| 325 (FLFVDPELV; listed as Homo sapiens) [compound 325] |  |  | +++ (50% - 69% = +++) |
| 326 (KLTDVGIATL; listed as Homo sapiens) [compound 326] |  |  | ++++ (≥70% = ++++) |
| 327 (MLFGHPLLVSV; listed as Homo sapiens) [compound 327] |  |  | ++ (20% - 49% = ++) |
| 328 (ILFPDIIARA; listed as Homo sapiens) [compound 328] |  |  | ++++ (≥70% = ++++) |

From US10702592B2, “Peptides and combination of peptides for use in immunotherapy against NHL and other cancers” (Immatics Biotechnologies GmbH, priority 2016, dated 2020)
